Legend:
HeLa Kyoto [1] = experiment: thermal stability score vs G1/S (z-score of summed log2 fold changes over temperatures); higher = more thermally stable than in G1/S
HeLa Kyoto [2] = experiment: solubility in G1/S (NP-40 vs SDS abundance) (log2 ratio); higher = more soluble; conditions: cell cycle stage: G1/S
HeLa Kyoto [3] = experiment: solubility change mitosis vs G1/S (difference of NP-40 vs SDS log2 ratios) (log2 ratio difference); higher = more soluble in mitosis
HeLa Kyoto [4] = experiment: melting temperature (median over replicates), in situ; higher = more thermally stable
[5] = cell cycle stage: early G1 (4.5 h after nocodazole release)
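For melting temperature (median over replicates), in situ in this document: HeLa Kyoto cells synchronized by double thymidine or nocodazole block, proteins quantified by TMT10plex mass spectrometry, three independent biological replicates.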
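For solubility change mitosis vs G1/S (difference of NP-40 vs SDS log2 ratios) in this document: synchronized HeLa Kyoto cells (double thymidine block for G1/S, nocodazole release for mitosis), protein amounts in NP-40 versus SDS lysates quantified by mass spectrometry, three biological replicates.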
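For solubility in G1/S (NP-40 vs SDS abundance) in this document: HeLa Kyoto cells arrested at G1/S by double thymidine block, proteins quantified by TMT10plex mass spectrometry in mild NP-40 versus SDS extracts, three biological replicates.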
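For thermal stability score vs G1/S (z-score of summed log2 fold changes over temperatures) in this document: synchronized HeLa Kyoto cells, proteins quantified by TMT10plex mass spectrometry, three biological replicates, mitosis taken 0.5 h after nocodazole release, G1/S directly after double thymidine block.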

Sequence	thermal stability score (HeLa Kyoto [1]; [5])	thermal stability score (HeLa Kyoto [1]; cell cycle stage: mitosis)	solubility in G1/S (log2) (HeLa Kyoto [2])	solubility change mitosis (log2) (HeLa Kyoto [3])	melting temperature (HeLa Kyoto [4]; cell cycle stage: G1/S) [°C]	melting temperature (HeLa Kyoto [4]; cell cycle stage: mitosis) [°C]
MLQQVPENINFPAEEEKILEFWTEFNCFQECLKQSKHKPKFTFYDGPPFATGLPHYGHILAGTIKDIVTRYAHQSGFHVDRRFGWDCHGLPVEYEIDKTLGIRGPEDVAKMGITEYNNQCRAIVMRYSAEWKSTVSRLGRWIDFDNDYKTLYPQFMESVWWVFKQLYDKGLVYRGVKVMPFSTACNTPLSNFESHQNYKDVQDPSVFVTFPLEEDETVSLVAWTTTPWTLPSNLAVCVNPEMQYVKIKDVARGRLLILMEARLSALYKLESDYEILERFPGAYLKGKKYRPLFDYFLKCKENGAFTVLVDNYVKEEEGTGVVHQAPYFGAEDYRVCMDFNIIRKDSLPVCPVDASGCFTTEVTDFAGQYVKDADKSIIRTLKEQGRLLVATTFTHSYPFCWRSDTPLIYKAVPSWFVRVENMVDQLLRNNDLCYWVPELVREKRFGNWLKDARDWTISRNRYWGTPIPLWVSDDFEEVVCIGSVAELEELSGAKISDLHRESVDHLTIPSRCGKGSLHRISEVFDCWFESGSMPYAQVHYPFENKREFEDAFPADFIAEGIDQTRGWFYTLLVLATALFGQPPFKNVIVNGLVLASDGQKMSKRKKNYPDPVSIIQKYGADALRLYLINSPVVRAENLRFKEEGVRDVLKDVLLPWYNAYRFLIQNVLRLQKEEEIEFLYNENTVRESPNITDRWILSFMQSLIGFFETEMAAYRLYTVVPRLVKFVDILTNWYVRMNRRRLKGENGMEDCVMALETLFSVLLSLCRLMAPYTPFLTELMYQNLKVLIDPVSVQDKDTLSIHYLMLPRVREELIDKKTESAVSQMQSVIELGRVIRDRKTIPIKYPLKEIVVIHQDPEALKDIKSLEKYIIEELNVRKVTLSTDKNKYGIRLRAEPDHMVLGKRLKGAFKAVMTSIKQLSSEELEQFQKTGTIVVEGHELHDEDIRLMYTFDQATGGTAQFEAHSDAQALVLLDVTPDQSMVDEGMAREVINRIQKLRKKCNLVPTDEITVYYKAKSEGTYLNSVIESHTEFIFTTIKAPLKPYPVSPSDKVLIQEKTQLKGSELEITLTRGSSLPGPACAYVNLNICANGSEQGGVLLLENPKGDNRLDLLKLKSVVTSIFGVKNTELAVFHDETEIQNQTDLLSLSGKTLCVTAGSAPSLINSSSTLLCQYINLQLLNAKPQECLMGTVGTLLLENPLGQNGLTHQGLLYEAAKVFGLRSRKLKLFLNETQTQEITEDIPVKTLNMKTVYVSVLPTTADF [IARS]	0.0148	2.81	-0.225	-0.178	48.8	49.2
MLRACQLSGVTAAAQSCLCGKFVLRPLRPCRRYSTSGSSGLTTGKIAGAGLLFVGGGIGGTILYAKWDSHFRESVEKTIPYSDKLFEMVLGPAAYNVPLPKKSIQSGPLKISSVSEVMKESKQPASQLQKQKGDTPASATAPTEAAQIISAAGDTLSVPAPAVQPEESLKTDHPEIGEGKPTPALSEEASSSSIRERPPEEVAARLAQQEKQEQVKIESLAKSLEDALRQTASVTLQAIAAQNAAVQAVNAHSNILKAAMDNSEIAGEKKSAQWRTVEGALKERRKAVDEAADALLKAKEELEKMKSVIENAKKKEVAGAKPHITAAEGKLHNMIVDLDNVVKKVQAAQSEAKVVSQYHELVVQARDDFKRELDSITPEVLPGWKGMSVSDLADKLSTDDLNSLIAHAHRRIDQLNRELAEQKATEKQHITLALEKQKLEEKRAFDSAVAKALEHHRSEIQAEQDRKIEEVRDAMENEMRTQLRRQAAAHTDHLRDVLRVQEQELKSEFEQNLSEKLSEQELQFRRLSQEQVDNFTLDINTAYARLRGIEQAVQSHAVAEEEARKAHQLWLSVEALKYSMKTSSAETPTIPLGSAVEAIKANCSDNEFTQALTAAIPPESLTRGVYSEETLRARFYAVQKLARRVAMIDETRNSLYQYFLSYLQSLLLFPPQQLKPPPELCPEDINTFKLLSYASYCIEHGDLELAAKFVNQLKGESRRVAQDWLKEARMTLETKQIVEILTAYASAVGIGTTQVQPE [IMMT]	0.171	-1.21	0.38	0.0268	53.2	52
MLRAKNQLFLLSPHYLRQVKESSGSRLIQQRLLHQQQPLHPEWAALAKKQLKGKNPEDLIWHTPEGISIKPLYSKRDTMDLPEELPGVKPFTRGPYPTMYTFRPWTIRQYAGFSTVEESNKFYKDNIKAGQQGLSVAFDLATHRGYDSDNPRVRGDVGMAGVAIDTVEDTKILFDGIPLEKMSVSMTMNGAVIPVLANFIVTGEEQGVPKEKLTGTIQNDILKEFMVRNTYIFPPEPSMKIIADIFEYTAKHMPKFNSISISGYHMQEAGADAILELAYTLADGLEYSRTGLQAGLTIDEFAPRLSFFWGIGMNFYMEIAKMRAGRRLWAHLIEKMFQPKNSKSLLLRAHCQTSGWSLTEQDPYNNIVRTAIEAMAAVFGGTQSLHTNSFDEALGLPTVKSARIARNTQIIIQEESGIPKVADPWGGSYMMECLTNDVYDAALKLINEIEEMGGMAKAVAEGIPKLRIEECAARRQARIDSGSEVIVGVNKYQLEKEDAVEVLAIDNTSVRNRQIEKLKKIKSSRDQALAERCLAALTECAASGDGNILALAVDASRARCTVGEITDALKKVFGEHKANDRMVSGAYRQEFGESKEITSAIKRVHKFMEREGRRPRLLVAKMGQDGHDRGAKVIATGFADLGFDVDIGPLFQTPREVAQQAVDADVHAVGISTLAAGHKTLVPELIKELNSLGRPDILVMCGGVIPPQDYEFLFEVGVSNVFGPGTRIPKAAVQVLDDIEKCLEKKQQSV [MUT]	-0.0875	0.531	0.0667	-0.0993	50.6	50.3
MLRCLYHWHRPVLNRRWSRLCLPKQYLFTMKLQSPEFQSLFTEGLKSLTELFVKENHELRIAGGAVRDLLNGVKPQDIDFATTATPTQMKEMFQSAGIRMINNRGEKHGTITARLHEENFEITTLRIDVTTDGRHAEVEFTTDWQKDAERRDLTINSMFLGFDGTLFDYFNGYEDLKNKKVRFVGHAKQRIQEDYLRILRYFRFYGRIVDKPGDHDPETLEAIAENAKGLAGISGERIWVELKKILVGNHVNHLIHLIYDLDVAPYIGLPANASLEEFDKVSKNVDGFSPKPVTLLASLFKVQDDVTKLDLRLKIAKEEKNLGLFIVKNRKDLIKATDSSDPLKPYQDFIIDSREPDATTRVCELLKYQGEHCLLKEMQQWSIPPFPVSGHDIRKVGISSGKEIGALLQQLREQWKKSGYQMEKDELLSYIKKT [TRNT1]	1.75	1.59	0.146	-0.109	50.9	50.2

Reference: the supplement of paper PMC5998384
